T1: human B7-H4 (purified monomeric recombinant human protein, ACRO biosystems) (human, UniProt Q7Z7D3 29-258, limits assumed, chemically biotinylated (EZ-Link NHS-LC-Biotin) in the yeast display and competition experiments; non-biotinylated in SPR)
T1 construct: Bought recombinant monomeric protein; also called B7x; B7S1
T1 sequence: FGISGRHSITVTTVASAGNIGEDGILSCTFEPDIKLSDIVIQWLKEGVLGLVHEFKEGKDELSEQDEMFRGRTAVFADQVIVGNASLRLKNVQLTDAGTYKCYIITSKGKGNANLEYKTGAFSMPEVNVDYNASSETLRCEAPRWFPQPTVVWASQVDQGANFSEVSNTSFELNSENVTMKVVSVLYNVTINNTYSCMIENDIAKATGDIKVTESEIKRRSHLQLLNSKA


Target: T1, human B7-H4 (purified monomeric …)
Assay: SPR (Carterra LSA); scFv-Fc captured on anti-human IgG Fc, antigen injected
Method: Finally, the affinity of the 24 clones was determined using high-throughput surface plasmon resonance (SPR). The supernatants were arrayed by non-covalent capture in a medium-density SPR chip previously coupled with an anti-human polyclonal antibody and (at least 4 replicates per clone). Non-biotinylated antigen was used for all affinity measurements and sensorgrams were fitted using a pseudo-first-order kinetic model (Lundström 1994). […] In fact, it is notable that the off rates for some of the tested antibodies are probably better than 10⁻⁵ (Table 7), as indicated by the bunching of matured antibodies at that value (Table 7)—such slow off rates are challenging to accurately measure using SPR. No affinity difference was observed between clones coming from one combo library versus the other.
The scFv from the final population (round 3, combo libraries) was bulk cloned into a yeast expression vector containing a human IgG1 Fc region to be expressed in the scFv-Fc format. For this, the scFv region was amplified by PCR, digested with BssHII and NheI restriction enzyme (New England Biolabs), and cloned into the pDNL9 vector, 92 clones were analyzed by Sanger sequencing and 24 of these plus the parental were expressed using S. cerevisiae strain YVH10 (ATCC MYA-4940). scFv-Fc fusions were expressed for 72 h at 20° C. in the presence of galactose. The Carterra LSA surface resonance system was used for the affinity measurements. Briefly, anti-Human IgG Fc (Southern Biotech, #2048-01) was covalently coupled to an HC30M chip following the manufacturer's protocols. Crude yeast supernatants containing the scFv-Fc fusions were arrayed on the chip.

Binder	KD fold-improvement	Kd	koff	kon
B07 scFv-Fc (scFv, V domains shown, Tested as scFv-Fc fusion (human IgG1 Fc, vector pDNL9) in crude yeast supernatant; Combo 2 library) VH: EVQLVESGGGVVQPGRSLRLSCAASGFTFGDRAMNWVRQAPGKGLEWVSAISGSGATTYYADSVKGRFTISRDNSKNTLYLQMNSLRAEDTAVYYCARKRWYGMDVWGQGTTVTVSS VL: SYELTQPPSVSVAPGKTARITCGGNNIGSKSVHWYQQKPGQAPVLVVYDDSDRPSGIPERFSGSNSGNTATLTISRVEAGDEADYYCQVWDRGMIFGTGTKLTVL	138 fold over parental	54 pM	1.8e-05 s⁻¹	330000 M⁻¹ s⁻¹
A02 scFv-Fc (scFv, V domains shown, Tested as scFv-Fc fusion (human IgG1 Fc, vector pDNL9) in crude yeast supernatant; Combo 1 library) VH: EVQLVESGGGVVQPGRSLRLSCAASGFTFTSRAMNWVRQAPGKGLEWVSAISYEGRTQYYADSVKGRFTISRDNSKNTLYLQMNSLRAEDTAVYYCARKRWYGMDVWGQGTTVTVSS VL: SYELTQPPSVSVAPGKTARITCGGNNIGSKSVHWYQQKPGQAPVLVVYDDSDRPSGIPERFSGSNSGNTATLTISRVEAGDEADYYCQVWDRGMIFGTGTKLTVL	188 fold over parental	39 pM	1.1e-05 s⁻¹	280000 M⁻¹ s⁻¹
A09 scFv-Fc (scFv, V domains shown, Tested as scFv-Fc fusion (human IgG1 Fc, vector pDNL9) in crude yeast supernatant; Combo 2 library) VH: EVQLVESGGGVVQPGRSLRLSCAASGFTFSSRSMNWVRQAPGKGLEWVSAISGSGLTSYYADSVKGRFTISRDNSKNTLYLQMNSLRAEDTAVYYCARKRWYGMDVWGQGTTVTVSS VL: SYELTQPPSVSVAPGKTARITCGGNNIGSKSVHWYQQKPGQAPVLVVYDDSDRPSGIPERFSGSNSGNTATLTISRVEAGDEADYYCQVWDRGMIFGTGTKLTVL	100 fold over parental	74 pM	1.1e-05 s⁻¹	160000 M⁻¹ s⁻¹
A01 scFv-Fc (scFv, V domains shown, Tested as scFv-Fc fusion (human IgG1 Fc, vector pDNL9) in crude yeast supernatant; Combo 1 library) VH: EVQLVESGGGVVQPGRSLRLSCAASGFTFSNKAMNWVRQAPGKGLEWVSAISGSGATTYYADSVKGRFTISRDNSKNTLYLQMNSLRAEDTAVYYCARKRWYGMDVWGQGTTVTVSS VL: SYELTQPPSVSVAPGKTARITCGGNNIGSKSVHWYQQKPGQAPVLVVYDDSDRPSGIPERFSGSNSGNTATLTISRVEAGDEADYYCQVWDRGMIFGTGTKLTVL	33 fold over parental	224 pM	3.7e-05 s⁻¹	170000 M⁻¹ s⁻¹
B12 scFv-Fc (scFv, V domains shown, Tested as scFv-Fc fusion (human IgG1 Fc, vector pDNL9) in crude yeast supernatant; Combo 2 library) VH: EVQLVESGGGVVQPGRSLRLSCAASGFTFSDRAMNWVRQAPGKGLEWVSAISGTGASTYYADSVKGRFTISRDNSKNTLYLQMNSLRAEDTAVYYCARKRWYGMDVWGQGTTVTVSS VL: SYELTQPPSVSVAPGKTARITCGGNNIGSKSVHWYQQKPGQAPVLVVYDDSDRPSGIPERFSGSNSGNTATLTISRVEAGDEADYYCQVWDRGMIFGTGTKLTVL	89 fold over parental	84 pM	2.8e-05 s⁻¹	340000 M⁻¹ s⁻¹
A11 scFv-Fc (scFv, V domains shown, Tested as scFv-Fc fusion (human IgG1 Fc, vector pDNL9) in crude yeast supernatant; Combo 2 library) VH: EVQLVESGGGVVQPGRSLRLSCAASGFTFSSRSMNWVRQAPGKGLEWVSAISGSGSTVYYADSVKGRFTISRDNSKNTLYLQMNSLRAEDTAVYYCARKRWYGMDVWGQGTTVTVSS VL: SYELTQPPSVSVAPGKTARITCGGNNIGSKSVHWYQQKPGQAPVLVVYDDSDRPSGIPERFSGSNSGNTATLTISRVEAGDEADYYCQVWDRGMIFGTGTKLTVL	123 fold over parental	60 pM	1.1e-05 s⁻¹	190000 M⁻¹ s⁻¹
B06 scFv-Fc (scFv, V domains shown, Tested as scFv-Fc fusion (human IgG1 Fc, vector pDNL9) in crude yeast supernatant; Combo 1 library) VH: EVQLVESGGGVVQPGRSLRLSCAASGFTFSNKAMNWVRQAPGKGLEWVSAISGSGATTYYADSVKGRFTISRDNSKNTLYLQMNSLRAEDTAVYYCARKRWYGMDVWGQGTTVTVSS VL: SYELTQPPSVSVAPGKTARITCGGNNIGVKAVHWYQQKPGQAPVLVVYDDSDRPSGIPERFSGSNSGNTATLTISRVEAGDEADYYCQVWDRGMIFGTGTKLTVL	76 fold over parental	97 pM	1.7e-05 s⁻¹	170000 M⁻¹ s⁻¹
B08 scFv-Fc (scFv, V domains shown, Tested as scFv-Fc fusion (human IgG1 Fc, vector pDNL9) in crude yeast supernatant; Combo 2 library) VH: EVQLVESGGGVVQPGRSLRLSCAASGFTFSDRAMNWVRQAPGKGLEWVSAISASGASRYYADSVKGRFTISRDNSKNTLYLQMNSLRAEDTAVYYCARKRWYGMDVWGQGTTVTVSS VL: SYELTQPPSVSVAPGKTARITCGGNNIGSKSVHWYQQKPGQAPVLVVYDDSDRPSGIPERFSGSNSGNTATLTISRVEAGDEADYYCQVWDRGMIFGTGTKLTVL	64 fold over parental	117 pM	1.8e-05 s⁻¹	150000 M⁻¹ s⁻¹
B11 scFv-Fc (scFv, V domains shown, Tested as scFv-Fc fusion (human IgG1 Fc, vector pDNL9) in crude yeast supernatant; Combo 2 library) VH: EVQLVESGGGVVQPGRSLRLSCAASGFTFTSRAMNWVRQAPGKGLEWVSAISGSGATAYYADSVKGRFTISRDNSKNTLYLQMNSLRAEDTAVYYCARKRWYGMDVWGQGTTVTVSS VL: SYELTQPPSVSVAPGKTARITCGGNNIGSKSVHWYQQKPGQAPVLVVYDDSDRPSGIPERFSGSNSGNTATLTISRVEAGDEADYYCQVWDRGMIFGTGTKLTVL	109 fold over parental	68 pM	1.2e-05 s⁻¹	180000 M⁻¹ s⁻¹
A04 scFv-Fc (scFv, V domains shown, Tested as scFv-Fc fusion (human IgG1 Fc, vector pDNL9) in crude yeast supernatant; Combo 1 library) VH: EVQLVESGGGVVQPGRSLRLSCAASGFTFSSRSMNWVRQAPGKGLEWVSAISGSGDTTYYADSVKGRFTISRDNSKNTLYLQMNSLRAEDTAVYYCARKRWYGMDVWGQGTTVTVSS VL: SYELTQPPSVSVAPGKTARITCGGNNIGSKSVHWYQQKPGQAPVLVVYDDSDRPSGIPERFSGSNSGNTATLTISRVEAGDEADYYCQVWDRGMIFGTGTKLTVL	108 fold over parental	69 pM	2.1e-05 s⁻¹	310000 M⁻¹ s⁻¹
A10 scFv-Fc (scFv, V domains shown, Tested as scFv-Fc fusion (human IgG1 Fc, vector pDNL9) in crude yeast supernatant; Combo 2 library) VH: EVQLVESGGGVVQPGRSLRLSCAASGFTFSSRSMNWVRQAPGKGLEWVSAISGTGYTTYYADSVKGRFTISRDNSKNTLYLQMNSLRAEDTAVYYCARKRWYGMDVWGQGTTVTVSS VL: SYELTQPPSVSVAPGKTARITCGGNNIGSKSVHWYQQKPGQAPVLVVYDDSDRPSGIPERFSGSNSGNTATLTISRVEAGDEADYYCQVWDRGMIFGTGTKLTVL	72 fold over parental	103 pM	1.4e-05 s⁻¹	140000 M⁻¹ s⁻¹
B03 scFv-Fc (scFv, V domains shown, Tested as scFv-Fc fusion (human IgG1 Fc, vector pDNL9) in crude yeast supernatant; Combo 1 library) VH: EVQLVESGGGVVQPGRSLRLSCAASGFTFGDRAMNWVRQAPGKGLEWVSAISGSGSGTYYADSVKGRFTISRDNSKNTLYLQMNSLRAEDTAVYYCARKRWYGMDVWGQGTTVTVSS VL: SYELTQPPSVSVAPGKTARITCGGNNIGMKSVHWYQQKPGQAPVLVVYDDSDRPSGIPERFSGSNSGNTATLTISRVEAGDEADYYCQVWDRGMIFGTGTKLTVL	106 fold over parental	70 pM	2.1e-05 s⁻¹	300000 M⁻¹ s⁻¹
A08 scFv-Fc (scFv, V domains shown, Tested as scFv-Fc fusion (human IgG1 Fc, vector pDNL9) in crude yeast supernatant; Combo 2 library) VH: EVQLVESGGGVVQPGRSLRLSCAASGFTFGDRAMNWVRQAPGKGLEWVSAISSSGTTSYYADSVKGRFTISRDNSKNTLYLQMNSLRAEDTAVYYCARKRWYGMDVWGQGTTVTVSS VL: SYELTQPPSVSVAPGKTARITCGGNNIGSKSVHWYQQKPGQAPVLVVYDDSDRPSGIPERFSGSNSGNTATLTISRVEAGDEADYYCQVWDRGMIFGTGTKLTVL	172 fold over parental	43 pM	1.3e-05 s⁻¹	310000 M⁻¹ s⁻¹
B04 scFv-Fc (scFv, V domains shown, Tested as scFv-Fc fusion (human IgG1 Fc, vector pDNL9) in crude yeast supernatant; Combo 1 library) VH: EVQLVESGGGVVQPGRSLRLSCAASGFSFSSRAMNWVRQAPGKGLEWVSAVSGSGSGTYYADSVKGRFTISRDNSKNTLYLQMNSLRAEDTAVYYCARKRWYGMDVWGQGTTVTVSS VL: SYELTQPPSVSVAPGKTARITCGGNNIGLKSVHWYQQKPGQAPVLVVYDDSDRPSGIPERFSGSNSGNTATLTISRVEAGDEADYYCQVWDRGMIFGTGTKLTVL	43 fold over parental	172 pM	2.7e-05 s⁻¹	160000 M⁻¹ s⁻¹
B09 scFv-Fc (scFv, V domains shown, Tested as scFv-Fc fusion (human IgG1 Fc, vector pDNL9) in crude yeast supernatant; Combo 2 library) VH: EVQLVESGGGVVQPGRSLRLSCAASGFTYSSRAMNWVRQAPGKGLEWVSAISSSGTTTYYADSVKGRFTISRDNSKNTLYLQMNSLRAEDTAVYYCARKRWYGMDVWGQGTTVTVSS VL: SYELTQPPSVSVAPGKTARITCGGNNIGSKSVHWYQQKPGQAPVLVVYDDSDRPSGIPERFSGSNSGNTATLTISRVEAGDEADYYCQVWDRGMIFGTGTKLTVL	63 fold over parental	118 pM	2.5e-05 s⁻¹	210000 M⁻¹ s⁻¹
A05 scFv-Fc (scFv, V domains shown, Tested as scFv-Fc fusion (human IgG1 Fc, vector pDNL9) in crude yeast supernatant; Combo 1 library) VH: EVQLVESGGGVVQPGRSLRLSCAASGFTYSSRAMNWVRQAPGKGLEWVSAISGSGSNAYYADSVKGRFTISRDNSKNTLYLQMNSLRAEDTAVYYCARKRWYGMDVWGQGTTVTVSS VL: SYELTQPPSVSVAPGKTARITCGGNNIGSKSVHWYQQKPGQAPVLVVYDDSDRPSGIPERFSGSNSGNTATLTISRVEAGDEADYYCQVWDRGMIFGTGTKLTVL	63 fold over parental	117 pM	2.2e-05 s⁻¹	190000 M⁻¹ s⁻¹
